Data on 1 substance can be found in PMC5626764.

This assay concerns the target SHG-labeled wildtype NiV G ectodomain (Nipah virus) (UniProt Q9IH62). Put plainly: second harmonic generation (SHG).

As for “ephrinB2-229 (10881-HCCH, SinoBiological Inc.) (domain or fragment)”, the ΔSHG was -15.9%.
